B1: 5B11 (antibody, IgG2, V domains shown)
VH: QVQLVESGGGVVQPGRSVRLSCAASGFTFSSYGMHWVRQTPGKGLEWVAIIWYDGGIEYYADSVKGRFTISRDNSKNTLYLQMNSLRAEDTAVYYCARDHRYGSSWFDYWGQGTLVTVSS
VL: DIQMTQSPSSLSASVGDRVTITCRASQGINNYLAWFQQKPGKAPKSLIYAASSLQSGVPSNFSGSGSGTDFTLSISSLQPEDFATYYCQQYKSYPLTFGGGTKVEIR
notes: also called MAb 5B11; mAb 5B11
B2: 3C5 (antibody, IgG2, V domains shown)
VH: RVQLQESGPGLVKPSQTLSLTCTVSGGSIISGGYFWTWIRQHPGKGLEWIGYIYYSGSTYYSPSLKSRVTISVDTSKNQFSLKLSSVTAADTAVYYCTRAVPAAKGYYSYYGMDVWGQGTTVTVSS
VL: DIVMTQSPLSLPVTPGEPASISCRSSQSLLHSSGYNYLDWFLQKPGQSPQLLIYLSSNRASGVPDRFSGSGSGTDFTLKISRVEAEDVGVYYCMQALQTPFTFGPGTKVDIK
notes: also called MAb 3C5; mAb 3C5

Key:
[1] = target: T1, α4β1 integrin on J6.77 Jurkat cells (UniProt P13612 34-1032; P05556 21-798); assay: cell-based or functional assay
T1 sequence (P13612 34-1032, chain 1 of 2): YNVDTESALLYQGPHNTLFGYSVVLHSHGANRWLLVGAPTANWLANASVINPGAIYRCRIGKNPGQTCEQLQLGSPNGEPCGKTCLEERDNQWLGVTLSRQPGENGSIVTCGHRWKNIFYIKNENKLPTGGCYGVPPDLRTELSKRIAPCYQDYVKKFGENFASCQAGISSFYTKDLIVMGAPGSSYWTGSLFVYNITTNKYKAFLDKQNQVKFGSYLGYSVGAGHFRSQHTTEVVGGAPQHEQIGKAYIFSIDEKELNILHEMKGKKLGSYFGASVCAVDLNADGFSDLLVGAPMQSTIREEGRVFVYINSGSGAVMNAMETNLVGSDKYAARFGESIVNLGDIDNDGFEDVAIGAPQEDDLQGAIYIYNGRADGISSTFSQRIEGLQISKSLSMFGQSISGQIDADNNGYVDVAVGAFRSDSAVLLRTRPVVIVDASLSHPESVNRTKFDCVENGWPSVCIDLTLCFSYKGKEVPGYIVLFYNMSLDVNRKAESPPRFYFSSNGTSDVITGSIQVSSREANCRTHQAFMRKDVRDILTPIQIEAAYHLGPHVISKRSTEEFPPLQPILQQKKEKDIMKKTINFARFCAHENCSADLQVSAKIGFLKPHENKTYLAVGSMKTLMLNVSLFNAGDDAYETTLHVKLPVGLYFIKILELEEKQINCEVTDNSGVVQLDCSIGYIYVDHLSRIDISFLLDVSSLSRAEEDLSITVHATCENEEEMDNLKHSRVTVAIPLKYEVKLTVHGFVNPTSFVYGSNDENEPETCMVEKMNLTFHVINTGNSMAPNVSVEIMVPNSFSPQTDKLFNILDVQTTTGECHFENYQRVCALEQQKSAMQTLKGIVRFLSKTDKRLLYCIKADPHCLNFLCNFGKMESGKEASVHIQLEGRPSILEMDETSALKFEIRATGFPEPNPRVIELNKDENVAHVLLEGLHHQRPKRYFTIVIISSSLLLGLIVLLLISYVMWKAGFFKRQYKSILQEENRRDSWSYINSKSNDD
T1 sequence (P05556 21-798, chain 2 of 2): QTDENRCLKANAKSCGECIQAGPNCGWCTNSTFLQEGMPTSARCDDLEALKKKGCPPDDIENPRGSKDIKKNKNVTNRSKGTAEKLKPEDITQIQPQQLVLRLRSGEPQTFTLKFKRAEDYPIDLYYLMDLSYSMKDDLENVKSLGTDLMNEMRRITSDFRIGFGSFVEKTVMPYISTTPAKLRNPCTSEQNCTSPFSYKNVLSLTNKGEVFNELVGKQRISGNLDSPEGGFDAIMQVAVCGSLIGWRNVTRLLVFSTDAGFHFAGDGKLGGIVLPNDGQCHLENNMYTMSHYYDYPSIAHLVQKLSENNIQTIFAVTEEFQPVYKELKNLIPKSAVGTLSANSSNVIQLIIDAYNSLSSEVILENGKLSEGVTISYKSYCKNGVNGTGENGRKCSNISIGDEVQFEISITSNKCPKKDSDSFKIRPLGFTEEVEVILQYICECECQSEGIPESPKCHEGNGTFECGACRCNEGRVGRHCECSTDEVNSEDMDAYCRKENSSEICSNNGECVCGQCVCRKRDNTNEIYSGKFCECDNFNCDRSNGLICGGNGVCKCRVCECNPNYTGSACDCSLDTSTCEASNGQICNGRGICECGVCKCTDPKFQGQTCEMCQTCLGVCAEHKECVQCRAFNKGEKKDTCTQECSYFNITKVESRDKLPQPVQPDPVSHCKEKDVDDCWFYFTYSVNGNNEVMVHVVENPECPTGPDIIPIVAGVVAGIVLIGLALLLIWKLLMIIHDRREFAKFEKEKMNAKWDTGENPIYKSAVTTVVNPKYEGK

human α5β1 integrin [2] = target: T2, human α5β1 integrin (human, UniProt P08648 42-1049; P05556 21-798); assay: cell-based or functional assay
T2 sequence (P08648 42-1049, chain 1 of 2): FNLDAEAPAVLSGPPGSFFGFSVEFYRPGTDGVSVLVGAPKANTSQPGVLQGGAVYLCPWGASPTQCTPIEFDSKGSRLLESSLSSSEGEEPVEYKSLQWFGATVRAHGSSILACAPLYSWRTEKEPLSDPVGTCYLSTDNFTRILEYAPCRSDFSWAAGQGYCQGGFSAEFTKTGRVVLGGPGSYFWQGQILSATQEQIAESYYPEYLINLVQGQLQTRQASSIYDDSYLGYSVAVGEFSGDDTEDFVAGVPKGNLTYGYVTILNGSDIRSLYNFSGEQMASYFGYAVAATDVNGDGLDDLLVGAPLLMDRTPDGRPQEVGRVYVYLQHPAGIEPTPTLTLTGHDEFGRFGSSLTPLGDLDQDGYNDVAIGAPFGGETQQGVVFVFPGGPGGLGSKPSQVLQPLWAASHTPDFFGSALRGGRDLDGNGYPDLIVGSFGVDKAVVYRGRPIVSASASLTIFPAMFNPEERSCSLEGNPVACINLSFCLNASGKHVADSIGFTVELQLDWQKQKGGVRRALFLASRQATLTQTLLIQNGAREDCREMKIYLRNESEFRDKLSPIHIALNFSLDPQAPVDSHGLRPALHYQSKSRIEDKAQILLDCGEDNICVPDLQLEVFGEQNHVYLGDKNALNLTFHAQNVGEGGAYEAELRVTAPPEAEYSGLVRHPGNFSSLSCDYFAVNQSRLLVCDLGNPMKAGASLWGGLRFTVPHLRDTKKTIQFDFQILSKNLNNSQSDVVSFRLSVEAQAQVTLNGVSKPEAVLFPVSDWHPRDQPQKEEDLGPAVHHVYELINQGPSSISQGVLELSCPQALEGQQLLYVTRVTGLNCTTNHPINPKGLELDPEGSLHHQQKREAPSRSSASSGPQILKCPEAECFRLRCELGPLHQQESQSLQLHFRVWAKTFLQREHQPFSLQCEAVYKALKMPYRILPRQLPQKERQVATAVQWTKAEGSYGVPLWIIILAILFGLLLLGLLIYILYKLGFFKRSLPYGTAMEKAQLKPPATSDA
T2 sequence (P05556 21-798, chain 2 of 2): as the sequence (P05556 21-798, chain 2 of 2) above

human α5β1 integrin [3] = target: T2, human α5β1 integrin; assay: FACS-based KD titration on K562 cells, 4 C, 5 h, 1 mM MgCl2 and 1 mM CaCl2
Experimental: To assess the affinity of the antibodies for α5β1, a FACS based KD analysis was employed. […] K562 cells expressing α5β1 were resuspended in filtered HBS buffer containing 1 mM MgCl₂ and 1 mM CaCl₂ at a concentration of approximately 2.5-6 million cells/mL. The cells were kept on ice. Serially diluted (2×) mAbs across 11 wells in a 96-well plate. All mAbs were diluted in HBS described above. Additional HBS and cells were added to each well so that the final volume was 300 μL/well and each well contained approximately 140,000-150,000 cells. The final molecular concentration range for each mAb was 3C5: 3.8 nM -7.5 μM; 5B11: 3.8 nM-7.3 μM. Cells were incubated on a plate shaker for 5 hours at 4° C. and then were spun/washed 3× at 4° C. with HBS. […] The Mean Fluorescence (F) of 7000 “events” was determined using FACS Canto II HTS flow cytometry instrumentation. To calculate affinity, data was fitted nonlinearly to a plot of the Mean Fluorescence as a function of molecular mAb concentration with Scientist 3.0 software using the equation:
In this equation, F=mean fluorescence, LT=total molecular mAb concentration, P′=proportionality constant that relates arbitrary fluorescence units to bound mAb, M=cellular concentration in molarity, n=number of receptors per cell, B=background signal, and KD=equilibrium dissociation constant. […]

human α5β1 integrin [4] = target: T2, human α5β1 integrin; assay: cell-based or functional assay; remark: listed apart in the source
[5] = target: T3, β1 integrin chain on HT29 cells (α5 null line) (human, UniProt P05556 21-798); assay: FACS on HT29 cells (no α5, β1 present)
T3 construct: whole, on cells; β1 is paired with alpha chains other than α5 on these cells; also called β1 chain; beta1
T3 sequence (P05556 21-798): as the sequence (P05556 21-798, chain 2 of 2) above
Experimental: To confirm the antibodies bind to the α5 chain or to the α5β1 heterodimer, binding to Human colon adenocarcinoma grade II cells (HT29 cells) was assessed by FACS. […] HT-29 cells were suspended in HBSS with 1% BSA and 1 mM final MnCL₂ at a concentration of 6×10⁵ cells/ml.12.5 uL of the primary antibody was added to 37.5 ul of cells and the plate incubated on ice for 60 minutes. A range of negative controls were included as described previously (indicated as below). In addition as a positive control antibodies to αvβ6 (Mab2077, Chemicon), α5β1 (Mab1909, Chemicon) and av (L230, Chemicon) were included. 100 uL of HBSS buffer was added to dilute primary antibody, the cells pelleted by centrifuging at 1500 rpm for 3 minutes and resuspended in 50 ul Goat anti-human IgG Fc Cy5 or Goat anti Mouse IgG Fc Cy5 secondary at 2 ug/mL. They were then incubated on ice for a further 7 minutes, and 100 uL of HBSS buffer was added to dilute secondary antibody. Finally cells were pelleted by centrifuging at 1500 rpm for 3 minutes, HBSS Buffer/secondary supernatant removed, washed twice in 100 ul of FACS buffer was added and the cells were resuspended and then read on a FACS Calibur HTS. Samples were analyzed using Cell Quest Pro software. The data is represented in Table 6 and confirm that the antibodies are selective for α5β1.

[6] = target: T1, α4β1 integrin on J6.77 Jurkat cells; assay: cell-based or functional assay; remark: listed apart in the source
Macaque α5β1 = target: T4, Macaque α5β1 (Macaque); assay: FACS on macaque PBMC, 1 mM Mn2+
T4 construct: whole, on cells; macaque species not specified; also called monkey α5β1; monkey integrin
Experimental: To determine whether the antibodies cross reacted to monkey integrin, binding to purified Macaque T-cells was assessed. Macaque PBMCs were previously purified from whole blood, and stored frozen. Macaque PBMCs were suspended in adhesion buffer with HBSS 1% BSA and 1 mM Mn2+ (“FACS buffer”), at a concentration of 4.8×10⁵ live cells per ml. 12.5 uL of the primary antibody was added to 37.5 ul of cells, and incubated at 4° C. for 1 hour. Positive and negative controls were included as indicated. 100 uL of FACs buffer is added to dilute out primary antibody, the cells washed and resuspended in the appropriate secondary at 2 ug/mL (50 uL) with 10 ug/mL 7AAD, and stained on ice for 7 minutes. 100 uL of FACs buffer was added and cells were washed twice in FACS buffer, finally the supernatant removed and the cells were resuspended in 100 uL of buffer.
Samples were read on HTS FACS machine and analyzed using Cell Quest Pro software. The data shown in Table 7 confirm that the antibodies cross react with monkey α5β1.

mouse α5β1 integrin = target: T5, mouse α5β1 integrin (mouse, UniProt P11688 45-999; P09055 21-728, limits assumed); assay: not described
T5 construct: printed only as mouse integrin / murine integrin; also called mouse integrin; murine integrin
T5 sequence (P11688 45-999 limits assumed, chain 1 of 2): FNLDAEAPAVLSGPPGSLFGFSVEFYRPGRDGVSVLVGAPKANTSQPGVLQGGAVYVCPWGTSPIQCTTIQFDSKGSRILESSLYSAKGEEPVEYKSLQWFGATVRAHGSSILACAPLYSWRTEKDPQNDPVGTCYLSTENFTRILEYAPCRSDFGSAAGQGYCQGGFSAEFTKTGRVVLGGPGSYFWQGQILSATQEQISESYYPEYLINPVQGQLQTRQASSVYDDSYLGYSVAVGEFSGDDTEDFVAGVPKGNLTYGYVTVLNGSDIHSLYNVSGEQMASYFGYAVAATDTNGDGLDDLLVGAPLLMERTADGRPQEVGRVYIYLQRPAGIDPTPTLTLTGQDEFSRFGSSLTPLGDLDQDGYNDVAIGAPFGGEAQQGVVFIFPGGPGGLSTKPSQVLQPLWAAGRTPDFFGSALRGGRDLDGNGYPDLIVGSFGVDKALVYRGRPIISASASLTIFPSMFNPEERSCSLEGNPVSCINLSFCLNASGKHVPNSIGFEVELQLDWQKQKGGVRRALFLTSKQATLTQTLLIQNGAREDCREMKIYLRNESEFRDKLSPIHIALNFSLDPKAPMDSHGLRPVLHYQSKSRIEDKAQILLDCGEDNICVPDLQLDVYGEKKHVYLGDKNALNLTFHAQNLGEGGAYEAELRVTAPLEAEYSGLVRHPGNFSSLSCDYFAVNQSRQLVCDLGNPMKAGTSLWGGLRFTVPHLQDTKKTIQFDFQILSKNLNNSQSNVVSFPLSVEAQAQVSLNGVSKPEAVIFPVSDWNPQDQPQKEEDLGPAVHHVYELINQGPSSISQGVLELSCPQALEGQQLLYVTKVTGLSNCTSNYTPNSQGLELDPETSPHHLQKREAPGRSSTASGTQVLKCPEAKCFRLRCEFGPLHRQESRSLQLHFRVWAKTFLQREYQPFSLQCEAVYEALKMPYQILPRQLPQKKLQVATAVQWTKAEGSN
T5 sequence (P09055 21-728 limits assumed, chain 2 of 2): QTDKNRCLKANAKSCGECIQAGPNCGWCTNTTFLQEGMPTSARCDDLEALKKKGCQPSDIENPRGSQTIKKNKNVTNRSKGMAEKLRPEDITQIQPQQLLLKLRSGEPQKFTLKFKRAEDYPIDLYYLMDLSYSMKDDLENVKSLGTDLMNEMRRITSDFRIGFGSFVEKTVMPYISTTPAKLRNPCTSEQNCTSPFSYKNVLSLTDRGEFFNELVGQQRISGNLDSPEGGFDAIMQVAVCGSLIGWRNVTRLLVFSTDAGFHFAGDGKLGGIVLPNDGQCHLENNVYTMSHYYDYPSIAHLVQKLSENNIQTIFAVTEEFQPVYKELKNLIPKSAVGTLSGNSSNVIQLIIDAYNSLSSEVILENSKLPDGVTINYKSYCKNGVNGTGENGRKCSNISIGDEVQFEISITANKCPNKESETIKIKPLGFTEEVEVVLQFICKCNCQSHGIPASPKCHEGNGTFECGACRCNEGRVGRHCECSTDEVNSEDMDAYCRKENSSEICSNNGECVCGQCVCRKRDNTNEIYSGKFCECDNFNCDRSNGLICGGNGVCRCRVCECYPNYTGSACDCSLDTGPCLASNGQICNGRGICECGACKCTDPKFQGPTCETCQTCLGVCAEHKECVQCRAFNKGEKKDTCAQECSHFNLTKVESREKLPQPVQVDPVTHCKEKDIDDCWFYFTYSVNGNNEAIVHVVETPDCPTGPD

Average % inhibition at 5 ug/ml (J6 adhesion to GST-CS-1) [1] [%]	% Inhibition of cell adhesion n = 1 (K562 on full length FN) (human α5β1 integrin [2]) [%]	% Inhibition of cell adhesion n = 2 (K562 on full length FN) (human α5β1 integrin [2]) [%]	% Inhibition of cell adhesion n = 3 (K562 on GST-FNIII(9-10), no pre-incubation) (human α5β1 integrin [2]) [%]	% Inhibition of cell adhesion n = 4 (K562 on GST-FNIII(9-10), supernatant 1 in 10) (human α5β1 integrin [2]) [%]	% Inhibition of cell adhesion n = 5 (K562 on GST-FNIII(9-10), supernatant 1 in 10) (human α5β1 integrin [2]) [%]	Kd (human α5β1 integrin [3]) [nM]	IC50 ng/mL (K562 adhesion to GST-FNIII(9-10)) (human α5β1 integrin [4]) [ng/mL]	Binding Geomean [5]	binding result [5]	% Inhibition of adhesion CS1 n = 1 (J6.77 Jurkat on GST-CS-1) [6] [%]	% Inhibition of adhesion CS1 n = 2 (J6.77 Jurkat on GST-CS-1) [6] [%]	Geo Mean on Macaque T-cells IgG detection (Macaque α5β1)	binding result (mouse α5β1 integrin)	Binder
-9	96	98	90	97	102	0.0347	28.4	4.62	no binding	27	-15	12		B1
0	97	96	99	97	104	0.0147	12.4	4.04	no binding	24	-4	16	no binding	B2
